Source: paper PMC13188885, “Zero-valent sulfur is the product of assimilatory sulfite reductase and a substrate of cysteine synthase” (Applied and Environmental Microbiology, 2026)

Columns and labels:
Test in all cases: mBBr-HPLC of cysteine released by TCEP; Michaelis-Menten fit
Conditions in all cases: O-acetyl-L-serine co-substrate 1.0-2.0 mM, 100 µM PLP, pH 7.4, 30 °C
[1] = substrate: O=S(O)(O)=S; assay type: biochemical, Saccharolobus islandicus
From the text: (§1) mBBr-HPLC of cysteine released by TCEP; Michaelis-Menten fit on SiRe_1641 | We then assayed the kinetics of all five cysteine synthases

[2] = substrate: N[C@@H](CCC(=O)N[C@@H](CSS)C(=O)NCC(=O)O)C(=O)O; assay type: biochemical, Saccharolobus islandicus
From the text: as §1

[3] = substrate: O=S(O)(O)=S; assay type: biochemical, Escherichia coli
From the text: (§2) mBBr-HPLC of cysteine released by TCEP; Michaelis-Menten fit on EcCysM | We then assayed the kinetics of all five cysteine synthases

[4] = substrate: N[C@@H](CCC(=O)N[C@@H](CSS)C(=O)NCC(=O)O)C(=O)O; assay type: biochemical, Escherichia coli
From the text: as §2

[5] = substrate: O=S(O)(O)=S; assay type: biochemical, Escherichia coli; remark: listed apart in the source
From the text: (§3) mBBr-HPLC of cysteine released by TCEP; Michaelis-Menten fit on EcCysK | We then assayed the kinetics of all five cysteine synthases

[6] = substrate: N[C@@H](CCC(=O)N[C@@H](CSS)C(=O)NCC(=O)O)C(=O)O; assay type: biochemical, Escherichia coli; remark: listed apart in the source
From the text: as §3

B1: SiRe_1641 (Saccharolobus islandicus REY15A) (protein)
chain: MSNPLHVFSNEQELLEGMWPTPLLKLRIGNDTWAKLEFYNPFSRSVKDRTAWFLFRQALIKNVNHIVEATSGNTGIALASLSSIYGMQFTMFLPVVAPKVYKVLVKLLGGNVIEAGNSTNDVIPLVKRFAEMSNAVNLDQFNNPINVIAHYETTAREIDEQLTSIGKRPSRIIATMGTGGHIAGVAKYFKEKYGNDVEIVGVQPSENSRIPGIKRQNGSNSLLRDIKIDRVVDVSLEEAIDGTISVARTSGILIGISAGATVAAYKRINDVSSTTVLIFPDDAFKYVDILEQTLKEI
notes: N-terminal His-tag, expressed in E. coli BL21(DE3), Ni-NTA
- Km [1]: 1126 ± 162 µM
- Vmax [1]: 0.065 µM/min/mg
- kcat [1]: 1.52 ± 0.511 s⁻¹
- Km [2]: 279 ± 32 µM
- Vmax [2]: 0.174 µM/min/mg
- kcat [2]: 4.92 ± 1.27 s⁻¹

B2: EcCysM (Escherichia coli K-12) (protein)
chain: MSTLEQTIGNTPLVKLQRMGPDNGSEVWLKLEGNNPAGSVKDRAALSMIVEAEKRGEIKPGDVLIEATSGNTGIALAMIAALKGYRMKLLMPDNMSQERRAAMRAYGAELILVTKEQGMEGARDLALEMANRGEGKLLDQFNNPDNPYAHYTTTGPEIWQQTGGRITHFVSSMGTTGTITGVSRFMREQSKPVTIVGLQPEEGSSIPGIRRWPTEYLPGIFNASLVDEVLDIHQRDAENTMRELAVREGIFCGVSSGGAVAGALRVAKANPDAVVVAIICDRGDRYLSTGVFGEEHFSQGAGI
notes: as for B1
- Km [3]: 408 ± 28 µM
- Vmax [3]: 0.173 µM/min/mg
- kcat [3]: 5.81 ± 0.92 s⁻¹
- kcat/Km [3]: 12600 M⁻¹ s⁻¹
- Km [4]: 325 ± 33 µM
- Vmax [4]: 0.155 µM/min/mg
- kcat [4]: 5.16 ± 1.55 s⁻¹
- kcat/Km [4]: 14700 M⁻¹ s⁻¹

B3: EcCysK (Escherichia coli K-12) (protein)
chain: MSKIFEDNSLTIGHTPLVRLNRIGNGRILAKVESRNPSFSVKCRIGANMIWDAEKRGVLKPGVELVEPTSGNTGIALAYVAAARGYKLTLTMPETMSIERRKLLKALGANLVLTEGAKGMKGAIQKAEEIVASNPEKYLLLQQFSNPANPEIHEKTTGPEIWEDTDGQVDVFIAGVGTGGTLTGVSRYIKGTKGKTDLISVAVEPTDSPVIAQALAGEEIKPGPHKIQGIGAGFIPANLDLKLVDKVIGITNEEAISTARRLMEEEGILAGISSGAAVAAALKLQEDESFTNKNIVVILPSSGERYLSTALFADLFTEKELQQ
notes: as for B1
- Km [5]: 1036 ± 82 µM
- Vmax [5]: 0.074 µM/min/mg
- kcat [5]: 2.45 ± 0.935 s⁻¹
- Km [6]: 265 ± 37 µM
- Vmax [6]: 0.163 µM/min/mg
- kcat [6]: 9.78 ± 0.665 s⁻¹
